Laboratory results from the supplement of paper PMC11865577.

Experiments:
Assay in all cases: pull-down binding Z-score (relative to library population); higher = stronger binding
Details in all cases: RNA library: Library-2
[1] = test system: TO-3-N3-2 (biotin conjugate)
Summary of the method: (§1)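 Binding is given as a Z-score against the library mean and standard deviation, calculated after removing the beads-only signal and averaging barcoded replicate probes without their highest and lowest values. Cy5- or Cy3-end-labelled RNA library (1 μg) was heat-folded in phosphate/NaCl/KCl buffer and incubated 60 min at 25 °C with streptavidin beads bearing 100 pmol of biotin-conjugated small molecule. After three washes, RNA eluted in hot SDS was hybridised to a DNA barcode microarray for 20 h at 55.5 °C.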

[2] = test system: TO-N3-2 (biotin conjugate)
Summary of the method: as §1

[3] = test system: TO-3-N3 (biotin conjugate)
Summary of the method: as §1

TO-N3 (biotin conjugate) = test system: TO-N3 (biotin conjugate)
Summary of the method: as §1

Row | Sequence | pull-down binding Z-score [1] | pull-down binding Z-score [2] | pull-down binding Z-score [3] | pull-down binding Z-score (TO-N3 (biotin conjugate))
1 | AUGAAUCUCUCAU [SHAPE_invivo_SARS-CoV-2_Motif_473] | -0.347 | -0.958 | -0.104 | -0.427
2 | UCGCUUGCAAGUUGGAUUCAGAAUGAGUUUAACAAGGCAUGCGA [IAV_invivo_PA_3_Motif_18+IAV_invivo_PA_3_Motif_18] | -0.227 | -0.838 | -0.53 | -0.603
3 | CACCCGCGAAGAAGCUAUAAGACAUGUACGUGCAUGGAUUGGCUUCGAUGUCGAGGGGUG | -0.23 | 0.0562 | 0.929 | 0.845
4 | ACCUUUAGUACCUUUCUGGAUAACAAUUGCUUAUAUCAUUUGUAUUUCCACAAAGCAUUUCUAUUGGU | -0.225 | -0.25 | 0.707 | 0.513
5 | UCUCUCUCAUUUUGUUAACUUAGACAACCUGAGAGCUAAUAACACUAAAGGUUCAUUGCCUAUUAAUGUUAUAGUUUUUGAUGGUAAAUCAAAAUGUGAAGA [DMSMaPseq_invitro_SARS-CoV-2_Motif_146] | -0.388 | -0.699 | -0.765 | -0.723
6 | UCCGUAAGUAGGAUACUUACCUG [U1snRNP5ss-21] | -0.419 | -0.337 | -0.611 | -0.61
7 | GCAUACAGUCGCUACAGGAUUGGCAACUAUAAAUUAAACACAGACCAUUCCAGUAGCAGUGACAAUAUUGC [SHAPE_invivo_SARS-CoV-2_Motif_513] | 0.365 | 0.259 | -0.0312 | 0.116
8 | GUUGAAGUUGUUGAUAAGUACUUUGAUUGUUACGAUGGUGGCUGUAUUAAUGCUAACCAAGUCAUCGUCAACAACCUAGACAAAUCAGCUGGUUUUCCAUUUAAU | -0.0144 | 0.567 | -0.27 | 0.0753
9 | GGGGACGACCU [IAV_invivo_NA_6_Motif_17+IAV_invivo_NA_6_Motif_17] | -0.417 | -0.0675 | 0.479 | 0.481
10 | GGCAGUUUGUAUGUAAAUAAACAUGCAUUCC [SHAPE_invivo_SARS-CoV-2_Motif_362] | -0.171 | -0.727 | 0.0152 | -0.216
11 | GCUGCACAAAAAGC [IAV_invivo_NP_5_Motif_13+IAV_invivo_NP_5_Motif_13] | -0.544 | -0.23 | -0.79 | -1.08
12 | GUUCUUGAGUGUAAUGUGAAAACUACCGAAGUUGUAGGAGACAUUAUACUUAAACCAGC | 0.0674 | 0.162 | -0.133 | 0.111
13 | GCUUGCAUACGUAGACCAUUCUUAUGUUGUAAAUGCUGUUACGACCAUGUCAUAUCAACAUCACAUAAAUUAGUCUUGUCUGUUAAUCCGUAUGUUUGCAAUGC [DMSMaPseq_invitro_SARS-CoV-2_Motif_294] | -0.304 | -0.437 | -0.654 | -0.546
14 | CAAGGCUAUUGAUGGUGGUGUCACUCGUGACAUAGCAUCUACAGAUACUUG [SHAPE_invivo_SARS-CoV-2_Motif_176] | -0.243 | 0.281 | -0.614 | -0.424
15 | GCCCUGGAAUGAUGAUGGGC [IAV_invivo_PB1_2_Motif_20+IAV_invivo_PB1_2_Motif_20] | 0.012 | 0.65 | 0.0132 | 0.138
16 | UGUGACUGGACA [SHAPE_invivo_SARS-CoV-2_Motif_313] | -0.233 | -0.14 | 0.86 | 0.774
17 | CUAAUAACACUAAAGGUUCAUUGCCUAUUAAUGUUAUAG | -0.0592 | -0.904 | 0.171 | -0.0515
18 | GCGCGGCCAGAAACUGGCUGCGC [mismatch-GU] | 0.0256 | -0.388 | 0.969 | 0.831
19 | GUUGUAGACGGUUGUAAUUCAUCAACUUGUAUGAUGUGUUACAAACGUAAUAGAGCAAC | -0.529 | -0.288 | -0.88 | -0.954
20 | AUAAGAAAGACAAUUCUUAU [DMSMaPseq_invitro_SARS-CoV-2_Motif_114] | -0.3 | -1.45 | -0.755 | -1.07
21 | UACCAGCUGUACUCAACUCAAUUGAGUACAGACACUGGUG [DMSMaPseq_invitro_SARS-CoV-2_Motif_468] | -0.473 | -1.06 | -0.751 | -1.16

Row | Sequence | pull-down binding Z-score [1] | pull-down binding Z-score [2] | pull-down binding Z-score [3] | pull-down binding Z-score (TO-N3 (biotin conjugate))
22 | GUUAAAAUAUGAC [SHAPE_invivo_SARS-CoV-2_Motif_271] | -0.534 | -0.892 | -0.672 | -0.93
23 | UGGGUUACAUCCUACACAGGCACCUACACACCUCAGUGUUGACACUAAAUUCAAAACUGAAGGUUUAUGUGUUGACAUACCUGGCAUACCUAAGGACAUGACCUA | -0.293 | 0.213 | -0.497 | -0.257
24 | GCCACAAAGGC [IAV_invivo_PA_3_Motif_6+IAV_invivo_PA_3_Motif_6] | -0.685 | -0.964 | -0.745 | -1.13
25 | GGAGUUCAAAUUGCUUCC [IAV_invivo_NP_5_Motif_19+IAV_invivo_NP_5_Motif_19] | -0.404 | -0.604 | -0.502 | -0.561
26 | GCGCUGCCAGAAACUGGCUGAGCGC [bulge-UG] | -0.0129 | -0.14 | 0.553 | 0.392
27 | CCCCGGCCCCGGCCCCGGCCCCGG [r(CCCCGG)4] | 0.272 | 1.48 | 0.661 | 0.747
28 | UUAAUUGAAUUGUGCGUGGAUGAGGCUGGUUCUAAAUCACCCAUUCAGUACAUCGAUAUCGGUAAUUAUACAGUUUCCUGUUUACCUUUUACAAUUAA [DMSMaPseq_invitro_SARS-CoV-2_Multi_84_ComplexLevel_1] | 0.0361 | -0.403 | -0.244 | -0.239
29 | GAGGUAAGUACGAUACUUACCUG [U1snRNP5ss-7] | -0.544 | -0.876 | -0.856 | -1.17
30 | CUGUUUUUCAG | -0.661 | -1.53 | -0.739 | -1.23
31 | UGGCCAUGGUACAUUUGGCUA | -0.0742 | -0.59 | 0.537 | 0.286
32 | CUGUAGCUGCAUUUCACCAAGAAUGUAGUUUACAG [DMSMaPseq_invitro_SARS-CoV-2_Motif_500] | -0.0203 | -0.632 | 0.437 | 0.121
33 | GAAGAGGGAGCAAUUGUUGGCGAAAUUUCACCAUUGCCUUCUCUUC [IAV_invivo_NS1_NEP_8_Motif_10+IAV_invivo_NS1_NEP_8_Motif_10] | 0.262 | -0.213 | -0.045 | 0.0993
34 | GGAGGAGGAGGAGGAGGA [G4_r(GGA)6] | 7.36 | -1.68 | 4.17 | 2.99
35 | GCUAUGCAAAUGGC | -0.527 | -0.948 | -0.537 | -0.847
36 | GCAACUUGCUGUUGUUGUUUGUAACAGUUUACUCACACCUUUUGCUCGUUGC | -0.429 | -0.851 | -0.974 | -1.09
37 | GAGUAUUAGGUUUGAAAACCCUUGCUACUC [SHAPE_invivo_SARS-CoV-2_Motif_136] | -0.359 | -0.731 | -0.732 | -0.966
38 | UGUGUACACACA [SHAPE_invivo_SARS-CoV-2_Motif_249] | -0.496 | -0.584 | 0.252 | 0.0581
39 | ACAGGAGUCACCUUUUGU [SHAPE_invitro_SARS-CoV-2_Motif_112] | -0.599 | -0.669 | -0.709 | -0.78
40 | UAAAGAACUUUAAGUCAGUUCUUUA | -0.501 | -1.19 | -0.827 | -1.25
41 | UGGCCCCGAUUUCAGCUAUGGUUA [SHAPE_invitro_SARS-CoV-2_Motif_146] | -0.0487 | 0.341 | -0.129 | -0.032
42 | ACCACCAAUUAAAGAUUUUGGUGGU [SHAPE_invitro_SARS-CoV-2_Motif_434] | -0.49 | -1.4 | 0.206 | -0.123

Row | Sequence | pull-down binding Z-score [1] | pull-down binding Z-score [2] | pull-down binding Z-score [3] | pull-down binding Z-score (TO-N3 (biotin conjugate))
43 | GGAAUAAGUAUGAUACUUACCUG [U1snRNP5ss-6] | 0.331 | 1.18 | 1.69 | 1.81
44 | CCAAGACAUGUGAUCUGCACCUCUGAAGACAUGCUUAACCCUAAUUAUGAAGAUUUACUCAUUCGUAAGUCUAAUCAUAAUUUCUUGG [DMSMaPseq_invitro_SARS-CoV-2_Multi_33_ComplexLevel_1] | -0.101 | 0.229 | 0.403 | 0.332
45 | GUAUCUGAAUUAC | -0.196 | -0.281 | 0.0447 | -0.136
46 | GUGAGAGAGAGCCGGAACCCAGGGAAUGCUGAGUUCGAAGAUCUCAC [IAV_invivo_NP_5_Motif_14+IAV_invivo_NP_5_Motif_14] | 0.125 | 1.5 | 0.351 | 0.687
47 | GGCCAGCAGAGGCC [IAV_invivo_PA_3_Motif_7+IAV_invivo_PA_3_Motif_7] | 0.0485 | -0.109 | 0.905 | 0.703
48 | GUUUGUCUUAGUGGUUUAGAUUCUUUAGACACCUAUCCUUCUUUAGAAACUAUACAAAU | 0.0248 | -0.533 | -0.000875 | 0.0216
49 | CUCGUCUAUCUUCUGCAGGCUGCUUACGGUUUCGUCCGUGUUGCAGCCGAUCAUCAGCACAUCUAGGUUUCGUCCGGGUGUGACCGAAAGGUAAGAUGGAGAG | -0.556 | 0.408 | -0.0693 | -0.000928
50 | ACCAAUGUGCUAUGAGGCCCAAUUUCACUAUUAAGGGUUCAUUCCUUAAUGGUUCAUGUGGUAGUGUUGGU [SHAPE_invivo_SARS-CoV-2_Multi_27_ComplexLevel_1] | -0.186 | -0.569 | -0.261 | -0.295
51 | CUUUAUUAGAAG [DMSMaPseq_invitro_SARS-CoV-2_Motif_195] | -0.21 | -0.806 | -0.165 | -0.39
52 | GUCUGGUAGUCGGAC [IAV_invivo_NA_6_Motif_1+IAV_invivo_NA_6_Motif_1] | -0.235 | -0.21 | -0.00665 | -0.173
53 | AUUGGUGCAGGUAUAUGCGCUAGU | -0.674 | -0.926 | -0.974 | -1.16
54 | CCAUGGCAGAUUCCAACGGUACUAUUACCGUUGAAGAGCUUAAAAAGCUCCUUGAACAAUGGAACCUAGUAAUAGGUUUCCUAUUCCUUACAUGG [DMSMaPseq_invitro_SARS-CoV-2_Multi_81_ComplexLevel_1] | -0.516 | -0.419 | -0.195 | -0.621
55 | ACCUCGUCUAUGCUUUAAGGCAUUUUGAUGAAGGU | -0.357 | -0.876 | 0.13 | -0.152
56 | ACAUACUAGGACCUCUUUCUGCUCAAACUGGAAUUGCCGUUUUAGAUAUGU [DMSMaPseq_invitro_SARS-CoV-2_Motif_193] | -0.407 | -0.421 | -0.933 | -0.989
57 | AUAACAAUACUAGAUGGAAUUUCACAGUAUUCACUGAGACUCAUUGAUGCUAUGAUGUUCACAUCUGAUUUGGCUACUAACAAUCUAGUUGU | 0.176 | -0.351 | 0.311 | 0.384
58 | GACUUAUGAAAACUAUAGGUC | 0.00298 | -0.341 | -0.388 | -0.299
59 | UGUUGGCAUCAUUCUAUUGGAUUUGAUUACGUCUAUAAUCCGUUUAUGAUUGAUGUUCAACA | -0.183 | -0.625 | -0.515 | -0.712
60 | AAAGUGCUUUUGUUAAUUUAAAACAAUUACCAUUUU [SHAPE_invivo_SARS-CoV-2_Motif_363] | -0.408 | -1.63 | -0.825 | -1.18
61 | ACCUAAAUAGAGGU | -0.686 | -1.63 | -0.82 | -1.22
62 | UCACACUCAAAGGCGGUGCACCAACAAAGGUUACUUUUGGUGAUGACACUGUGAUAGAAGUGCAAGGUUACAAGAGUGUGAAUAUCACUUUUGAACUUGAUGA [DMSMaPseq_invitro_SARS-CoV-2_Multi_10_ComplexLevel_1] | -0.184 | 0.257 | 0.0984 | 0.304
63 | GUGAAGAAUCAU | -0.146 | -0.489 | 0.637 | 0.379
